Laboratory results: US12371817 (TEXAS A AND M UNIVERSITY SYSTEM, dated 2025)
Blank lines part the entries; values can stand above or below the binder they belong to. Numbered stars: 1 amine (or outer) side, 2 acyl side, 3 side chain; on linkers, the order of the positions; unused ones are H or OH. Square brackets hold non-standard residues; d marks the D form. Ends that are not written are not given here. * marks the point of attachment. thBuK = N^ε-thiobutyryl-lysine, CCCC(=S)NCCCC[C@H](N[*:1])C(=O)[*:2]; Crotonyl(E) = C/C=C/C(=O)*; Abu = CC[C@H](N)C(=O)O

Assays:
[1] = molecular target: T1, recombinant human sirtuin 2 (His6-SIRT2) (human, UniProt Q8IXJ6 1-389); assay: deacetylase inhibition
T1 chain: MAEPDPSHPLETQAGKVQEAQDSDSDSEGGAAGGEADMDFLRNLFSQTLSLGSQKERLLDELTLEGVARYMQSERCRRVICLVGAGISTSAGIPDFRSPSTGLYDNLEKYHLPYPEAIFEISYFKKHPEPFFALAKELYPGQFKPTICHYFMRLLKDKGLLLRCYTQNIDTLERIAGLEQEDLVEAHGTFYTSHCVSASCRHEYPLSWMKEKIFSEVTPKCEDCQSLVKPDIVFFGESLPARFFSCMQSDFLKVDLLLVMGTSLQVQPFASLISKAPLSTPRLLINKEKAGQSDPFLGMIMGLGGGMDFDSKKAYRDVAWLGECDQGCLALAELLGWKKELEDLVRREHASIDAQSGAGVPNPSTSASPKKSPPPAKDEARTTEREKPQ

[2] = molecular target: T2, recombinant human sirtuin 2 (His6-SIRT2) (human, UniProt Q8IXJ6 1-389); assay: cell-based or functional assay
T2 sequence (looked up): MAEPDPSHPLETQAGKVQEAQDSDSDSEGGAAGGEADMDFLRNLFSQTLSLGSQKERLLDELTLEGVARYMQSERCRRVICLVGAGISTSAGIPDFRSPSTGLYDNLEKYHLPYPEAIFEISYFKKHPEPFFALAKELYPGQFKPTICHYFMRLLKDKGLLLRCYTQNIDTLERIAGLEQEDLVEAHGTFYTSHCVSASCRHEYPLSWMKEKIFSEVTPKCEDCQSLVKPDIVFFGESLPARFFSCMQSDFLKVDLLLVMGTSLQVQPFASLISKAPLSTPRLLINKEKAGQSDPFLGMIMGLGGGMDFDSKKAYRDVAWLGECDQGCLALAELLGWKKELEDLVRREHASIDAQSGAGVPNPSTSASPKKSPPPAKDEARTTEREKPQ

[3] = molecular target: T3, human sirtuin 3 (GST-SIRT3) (human, UniProt Q9NTG7 102-399); assay: cell-based or functional assay
T3 sequence (looked up): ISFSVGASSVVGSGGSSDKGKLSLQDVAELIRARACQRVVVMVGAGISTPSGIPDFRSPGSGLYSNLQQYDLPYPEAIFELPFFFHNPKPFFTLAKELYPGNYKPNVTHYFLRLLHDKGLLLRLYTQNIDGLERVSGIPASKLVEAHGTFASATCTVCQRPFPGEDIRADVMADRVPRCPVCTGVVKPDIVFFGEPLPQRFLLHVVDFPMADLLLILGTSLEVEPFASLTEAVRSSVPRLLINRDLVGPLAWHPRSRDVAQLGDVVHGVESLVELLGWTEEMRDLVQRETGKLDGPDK

[4] = molecular target: T4, human sirtuin 1 (His6-SIRT1) (human, UniProt Q96EB6 1-747); assay: cell-based or functional assay
T4 sequence (looked up): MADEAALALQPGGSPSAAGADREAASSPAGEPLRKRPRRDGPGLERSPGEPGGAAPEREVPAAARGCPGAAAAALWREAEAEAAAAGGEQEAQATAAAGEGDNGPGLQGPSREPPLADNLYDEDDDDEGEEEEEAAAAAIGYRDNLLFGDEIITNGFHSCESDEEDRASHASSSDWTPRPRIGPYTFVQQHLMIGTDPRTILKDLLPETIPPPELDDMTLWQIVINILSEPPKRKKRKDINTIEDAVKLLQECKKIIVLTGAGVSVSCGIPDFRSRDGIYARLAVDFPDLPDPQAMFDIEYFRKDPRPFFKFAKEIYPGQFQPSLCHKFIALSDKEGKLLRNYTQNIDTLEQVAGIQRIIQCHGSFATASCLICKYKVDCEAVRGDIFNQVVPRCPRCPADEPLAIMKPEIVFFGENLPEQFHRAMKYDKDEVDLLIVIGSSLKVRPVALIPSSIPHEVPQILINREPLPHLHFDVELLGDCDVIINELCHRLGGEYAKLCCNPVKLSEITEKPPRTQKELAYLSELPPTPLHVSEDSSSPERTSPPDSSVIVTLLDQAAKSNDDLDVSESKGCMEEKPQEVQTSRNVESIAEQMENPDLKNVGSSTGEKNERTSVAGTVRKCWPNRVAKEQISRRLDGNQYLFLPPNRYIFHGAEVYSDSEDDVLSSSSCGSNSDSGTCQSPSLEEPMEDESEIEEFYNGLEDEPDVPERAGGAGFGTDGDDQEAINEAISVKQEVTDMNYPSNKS

[5] = molecular target: T5, ENL (UniProt Q03111 1-148, limits assumed); assay: fluorescence polarization, 5-FAM-conjugated peptide binding to ENL
T5 construct: also called ENL protein
T5 sequence (looked up): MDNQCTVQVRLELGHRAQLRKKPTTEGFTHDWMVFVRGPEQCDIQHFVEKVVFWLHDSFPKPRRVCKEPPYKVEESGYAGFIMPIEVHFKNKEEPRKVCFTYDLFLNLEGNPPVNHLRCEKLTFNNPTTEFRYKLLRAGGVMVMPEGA

- IC50 [1]: 68 nM
B1: S2P03 (NH2-CTVXTSL-NH2), synthesized with N^ε-thiobutyryl-lysine (thBuK) in place of BuK (peptide)
peptide: H-CTV[thBuK]TSL-NH2
SMILES: CCCC(=S)NCCCC[C@H](NC(=O)[C@@H](NC(=O)[C@@H](NC(=O)[C@@H](N)CS)[C@@H](C)O)C(C)C)C(=O)N[C@H](C(=O)N[C@@H](CO)C(=O)N[C@@H](CC(C)C)C(N)=O)[C@@H](C)O

- IC50 [1]: 92 nM
- fold more potent than TB (sirtuin inhibition) [2]: ≥ 33 fold
- fold by which SIRT2 is inhibited more potently than SIRT3 [3]: 152 fold
- fold more potent than TB (sirtuin inhibition) [3]: ≥ 33 fold
- fold by which SIRT2 is inhibited more potently than SIRT1 [4]: 2.7 fold
- fold more potent than TB (sirtuin inhibition) [4]: ≥ 33 fold
B2: S2P04 (NH2-TCTVXIG-NH2), synthesized with N^ε-thiobutyryl-lysine (thBuK) in place of BuK (peptide)
peptide: H-TCTV[thBuK]IG-NH2
SMILES: CCCC(=S)NCCCC[C@H](NC(=O)[C@@H](NC(=O)[C@@H](NC(=O)[C@H](CS)NC(=O)[C@@H](N)[C@@H](C)O)[C@@H](C)O)C(C)C)C(=O)N[C@H](C(=O)NCC(N)=O)[C@@H](C)CC

- Kd [5]: 94 nM
Binder: DIWCFK(Crotonyl(E))G (also: 5-FAM conjugated, site not given here) [5-FAM-conjugated 7CrKEnl1]

- Kd [5]: 90 nM
Binder: SK(Crotonyl(E))DIWCF (also: 5-FAM conjugated, site not given here) [5-FAM-conjugated 7CrKEnl2]

- IC50 [1]: 119 nM
B3: S2P04 (Abu)-5 (NH2-ZTVXI-NH2, Z is aminobutyric acid) (peptide)
peptide: H-[Abu]TV[thBuK]I-NH2
SMILES: CCCC(=S)NCCCC[C@H](NC(=O)[C@@H](NC(=O)[C@@H](NC(=O)[C@@H](N)CC)[C@@H](C)O)C(C)C)C(=O)N[C@H](C(N)=O)[C@@H](C)CC

- IC50 [1]: 191 nM
B4: Ac-S2P04-5 (Ac-CTVXI-NH2) (peptide)
peptide: Ac-CTV[thBuK]I-NH2
SMILES: CCCC(=S)NCCCC[C@H](NC(=O)[C@@H](NC(=O)[C@@H](NC(=O)[C@H](CS)NC(C)=O)[C@@H](C)O)C(C)C)C(=O)N[C@H](C(N)=O)[C@@H](C)CC

- IC50 [1]: 101 nM
B5: S2P07 (NH2-CTFXVPT-NH2), synthesized with N^ε-thiobutyryl-lysine (thBuK) in place of BuK (peptide)
peptide: H-CTF[thBuK]VPT-NH2
SMILES: CCCC(=S)NCCCC[C@H](NC(=O)[C@H](Cc1ccccc1)NC(=O)[C@@H](NC(=O)[C@@H](N)CS)[C@@H](C)O)C(=O)N[C@H](C(=O)N1CCC[C@H]1C(=O)N[C@H](C(N)=O)[C@@H](C)O)C(C)C

- IC50, inhibition of SIRT2 (fluorogenic sirtuin substrate assay) [2]: 136 nM
B6: S2P04-5, truncated version of S2P04 containing only the five residues of the consensus motif (peptide)
peptide: CTV[thBuK]I-NH2
modifications: N-terminus assumed
SMILES: CCCC(=S)NCCCC[C@H](NC(=O)[C@@H](NC(=O)[C@@H](NC(=O)[C@@H](N)CS)[C@@H](C)O)C(C)C)C(=O)N[C@H](C(N)=O)[C@@H](C)CC
